Reference: patent publication US20200347139A1 (INHIBRX BIOSCIENCES, published 2020)

What was measured:
mFc-CLEC12a-ECD = target: T1, mFc-CLEC12a-ECD (human); assay: BLI, mFc-CLEC12a-ECD captured on anti-mFc sensors, 100 nM sdAb as first sdAb
T1 construct: It was immobilized on anti-mFc capture sensors for BLI; also called CLEC12a antigen
T1 chain: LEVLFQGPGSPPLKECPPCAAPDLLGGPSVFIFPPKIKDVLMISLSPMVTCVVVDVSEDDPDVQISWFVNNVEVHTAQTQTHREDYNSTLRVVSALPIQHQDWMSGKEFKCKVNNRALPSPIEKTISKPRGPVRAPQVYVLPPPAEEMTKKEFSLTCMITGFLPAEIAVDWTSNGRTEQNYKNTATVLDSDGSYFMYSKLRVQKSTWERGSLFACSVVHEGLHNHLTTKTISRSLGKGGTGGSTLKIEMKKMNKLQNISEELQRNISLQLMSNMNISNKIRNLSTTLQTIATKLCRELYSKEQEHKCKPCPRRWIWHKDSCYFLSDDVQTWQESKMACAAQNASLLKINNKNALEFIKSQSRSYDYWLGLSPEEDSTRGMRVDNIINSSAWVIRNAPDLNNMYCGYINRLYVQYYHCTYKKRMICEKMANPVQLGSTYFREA
Method: The epitopes of single domain antibodies (sdAbs) that comprise VHH domains that bind CLEC12a were compared using Bio-Layer Interferometry. 7 μg/mL of mFc-CLEC12a-ECD (SEQ ID NO: 87) was immobilized on anti-mFc coated capture sensors. 100 nM of one sdAb was then loaded onto the CLEC12a antigen and allowed to come to equilibrium. The sensors were then transferred into 100 nM of a second sdAb.

[1] = target: T2, human CLEC12a expressed on transiently transfected HEK 293 cells (human, UniProt Q5QGZ9 1-265); assay: flow cytometry on HEK 293 cells transfected with human CLEC12a; apparent Kd, one-site fit
T2 construct: also called CLL-1; CLL1
T2 sequence: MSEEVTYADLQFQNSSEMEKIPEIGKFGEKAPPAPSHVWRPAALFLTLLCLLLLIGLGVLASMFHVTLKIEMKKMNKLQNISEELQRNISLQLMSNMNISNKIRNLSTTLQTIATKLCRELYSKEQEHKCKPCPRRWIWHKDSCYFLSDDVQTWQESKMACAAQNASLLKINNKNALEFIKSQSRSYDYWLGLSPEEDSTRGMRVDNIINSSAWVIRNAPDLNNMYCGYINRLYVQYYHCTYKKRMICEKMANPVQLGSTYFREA
Method: Binding of sdAbs to human CLEC12a was assessed by flow cytometry. […] HEK 293 cells were transiently transfected with a plasmid encoding CLEC12a (UniProt Accession No. Q5QGZ9.3; SEQ ID NO: 1) and used as the positive cell line, and untransfected HEK 293 cells were used as CLEC12a-negative cells. Each cell type was plated at 30,000 cells/well in FACS buffer (PBS 1% BSA, 0.1% NaN₃ pH 7.4) on a 96-well round-bottom plate. The sdAbs were diluted in FACS buffer in a 3-fold, 11 point serial dilution. The sdAb dilutions were added to the plated cells, and assay plates were incubated for 30 minutes at 4° C. After washing twice in 150 μL of FACS buffer, cells in each well were resuspended in 100 μL of 1:2000 Alexa Fluor 647-conjugated Anti-Human IgG secondary diluted in FACS buffer and incubated at 4° C. for 30 minutes. The cells were washed twice more, then bound antibody was detected by flow cytometry.
Flow cytometric analysis was performed on an Intellicyte iQue Plus and fluorescence was plotted as median fluorescence intensity. The apparent affinity (Kd, nM) was determined using one site binding non-linear regression in PRISM graph software.

binding result (mFc-CLEC12a-ECD): binds | Kd [1]: 0.3 nM
B1: hzMB11v13 sdAb (VHH hzMB11v13 fused to human IgG1 xELL Fc) (Fc fusion)
chain: EVQLVESGGGEVQPGGSLRLSCAASGFLFSIYDMNWYRQAPGKEREWVAGITNNGYSTAYAESVKGRFTISRDNAKNTIYLQMSSLRAEDTAVYYCHADLTKAYDVEYAWGQGTLVTVDKTHTCPPCPAPGGPSVFLFPPKPKDTLMISRTPEVTCVVVDVSHEDPEVKFNWYVDGVEVHNAKTKPREEQYNSTYRVVSVLTVLHQDWLNGKEYKCKVSNKALPAPIEKTISKAKGQPREPQVYTLPPSRDELTKNQVSLTCLVKGFYPSDIAVEWESNGQPENNYKTTPPVLDSDGSFFLYSKLTVDKSRWQQGNVFSCSVMHEALHNHYTQKSLSLSPGK
notes: Humanized version of MB11; No linker is stated; also called hzMB11v13-IgG1
